Results on 41 sequences are retold here after the nanobody polyreactivity screen of Harvey et al. (2022).

The series in a line: yeast display, Sf9 membrane polyspecificity reagent, FACS + sequencing; frameworks hold sequencing errors. Put shortly:
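Polyreactivity labels are assigned by the sorting gate from which each nanobody was recovered. The gates were low and high (top ~1%), set on anti-HA fluorescence for expression and streptavidin fluorescence for reagent binding. Before sorting, galactose-induced (36–48 hours) yeast display cells were stained for 1 hour at 4 °C with 10% biotinylated, detergent-solubilized Sf9 membrane reagent.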
As to “QVQVVESGGGLVQAGGSLRLSCAASGSTFVTYAMGWYRQARVKERELVAGISTGDITNYADSVKVRFTISRDNAKNTVYLQINRLKPEDTAVYYCSADLIQGAAPFRYDYWGQGTQVTVSS”, the “polyreactivity (PSR sort gate)” value is recorded as “low polyreactivity”.

For the sequence “QVQLVESGGGLVQAGGSLRLSCAASGFIFEYNAMGWYRQAPGKERELVAAITSSGGSTYYADSVKGRFTISRDNAKNTVYLKMYSLKPEDTAVYYCARVRRSAYYKDYYYWGQGTQVTVSS”, the “polyreactivity (PSR sort gate)” value is on record as “high polyreactivity”.

As for “QVQLVESGRGLVQAGGSLRLSCAASGSTFAPYTMGWYRQAPGKERELVAAISWNGGRTSYADSVKGRFTISRDNAKNTVYLQMNSLKPEDTAVYYCATRRIWTQSYDGGLYGYYYWGQGTQVTVSS”, the “polyreactivity (PSR sort gate)” value is “high polyreactivity”.

On to “QVQLVESGGGLVQAGGSLRLSCAASGSTIGFYAMGWYRQAPGKERELVAANSWTGGGTYYADSVKGRFTISRDNAKITVYLQMNSLKPEDTAVYYCARLYYFNGDFWGQGTQVTVSS”, for which the “polyreactivity (PSR sort gate)” value is on record as “high polyreactivity”.

On to “QVQLVESGGGLVQAGGSLRLSCAASGITFRGYAMGWYRKAPGKERELVASITNTDSTYYADSVKGRFTISRDNAKNTVYLQMNSLKPEDTAVYYCAARRGRKYGYWGQGTQVTVSS”, for which the “polyreactivity (PSR sort gate)” value is “high polyreactivity”.

Take “QDQLVESGGGLVQAGGRLRLSCAASGSTVGVYAMGWYRQAPGKERELVAAISYTGGSSYYADSVKGRFTISRDNAKNTVYLQMNSLKPEDTAVYYCAVEVGYTDSPYSYDYWGQGTQVTVSS”: the “polyreactivity (PSR sort gate)” value is on record as “low polyreactivity”.

On to “QVQLVESGGGLVQAGGSLRLSCAASGSIFGIYVMGWYRPAPGKERELVAGISTRGGSTYYADSVKGRFTISRDNAKNTVYLQMNSLKPEDTAVYYCAAVPASYRYPMYYWGQGTQVTVSS”, for which the “polyreactivity (PSR sort gate)” value was “low polyreactivity”.

With “QVQLVESGGGLVQAGGSLRLSCAASGRTFKDYAMGWYRPAPGKERELFAAISRGGSTNYADSVKGRFTISRDNAKNTVYLQVNSLKPEDTAVYYCARRYIVQSGDDYWGQGTQVTVSS”, the “polyreactivity (PSR sort gate)” value was “low polyreactivity”.

Consider “QVQLVESGGGLVQAGGSLRLSCAASGRIFETNGMGWYRQAPGKERELVAAITRSGGVRTYADSVKGRFTISRDNAKNTVYLQMNSLKPEDTAVYYCNKRSILGRGTPSPYKRMYHWGQGTQVTVSS”, for which the “polyreactivity (PSR sort gate)” value was “low polyreactivity”.

Consider “QVQLVESGGGLVQAGGSLRLSCAASGRIFGWYAMGWSRQAPGKERELGAAITTADSTYYADSVKGRFTISRDNAKNTVYLQMNSLKPEDTAVYYCAADAYWEYDYWGQGTQVTVSS”, for which the “polyreactivity (PSR sort gate)” value was “low polyreactivity”.

As to “QVQLVESGGGLVQAGGSLRLSCAASGFIFYTYAMGWYRQAPGKERELGADITSGGSTYYADSVKGRFTISRDNAKNTVYLQMNSLKPEDTAVYYCAADPGYPANRTEWRDFDYWGQGTQVTVSS”, the “polyreactivity (PSR sort gate)” value is “low polyreactivity”.

On to “QLQLVESGGGLVQAGGSLRLSCASSGFTLTYAMGWDRQAPGKERELVAAISSSGVRTYYADSVKGRFTISRDNAKNTVYLQKNSLKPEDTALYYCNAFIHGSRSYISDYYWGQGTQVTVSS”, for which the “polyreactivity (PSR sort gate)” value is “high polyreactivity”.

Consider “QVQLVESGGGLVQAGGSLRLSCAASGSTFKQYAMGWYRQAPGKERELVAAISTIGGSTYYADSVKGRFTISRDNAKITVYLQMNSLKPEDTAVYYCAAEYWYIWPYNYWGLGTQVTVSS”, for which the “polyreactivity (PSR sort gate)” value was “high polyreactivity”.

As for “QVQLVESGGGLVQAGGSLRLSCAASGRIFGGNAMGWSRQAPGKERELVAAISWSGGSTYADSVKGRFTISRDNAKNTVYLQMNSLKPEDTAVYYCATRLVKYYYYDYRTYGRRYDYWGQGTQVTVSS”, the “polyreactivity (PSR sort gate)” value is “high polyreactivity”.

Turning to “QVQLVESGGGLVQAGGSLRLSCAASGYGYVMGWYRQAPGKERELVAAISRSGGSTYYADSVKGRFTISRDNAKNTVYFQMNSLIPEDTAVYDCAARWPGAYHDYGYWGQVTQVTVSS”, the “polyreactivity (PSR sort gate)” value is given as “high polyreactivity”.

As to “QVQLVESGGGLVQAGGSLRLSCAASGRIFGPNAMGWYRQAPGKERELVAAITGSGGSTYADSVKGRFTISRDNAKNTVYLQMNSLKREDTAVYYCAKKTWYSYYWGQGTQVTVSS”, the “polyreactivity (PSR sort gate)” value is “high polyreactivity”.

As to “QVQLVESGGGLVQAGGSLRLSCAASGRIFLWYAMGWYRQAPGKERELVAAISWDTGNTYYADSVKGRFTISRDNAKNTVYLQINSLKPEDTAVYYCNADNYEWGNNYGYWGQGTQVTVSS”, the “polyreactivity (PSR sort gate)” value was “low polyreactivity”.

In the case of “QVQLVESGGVLVQAGGSLRLSCAASGRIFSYYAMGWYRQAPGKERELVARITSRGASTYYADSVKGRFTISRDNAKNTVYLQMNSLKPEDTAVYYCAARKDSTRRFDYWGQGTQVTVLS”, the “polyreactivity (PSR sort gate)” value was “high polyreactivity”.

On to “QVQLVESGGGLVQAGGSLRLSCAASGSTFTPYAMGWYRQAPGKEREFVARISWTGGSTYYADSVKGRFTISRDIAKNTVYLQMNSLKPEDTAVYYCNADRYRWYDHGYYYWGQGTQVTVSS”, for which the “polyreactivity (PSR sort gate)” value is recorded as “high polyreactivity”.

As to “QVQLVESGGGLVQAGGSLRLSCAASGRIFAYYAMGWYRQAPGKERELVAAITRSGARTYYADSVKGRFTISRDNAKNTVYLQMNSLKPEDTAVYYCAAEGVRIGTRYDYWGQGTQVTVSS”, the “polyreactivity (PSR sort gate)” value is given as “high polyreactivity”.

On to “QVQLVESGGGLVQAGGSLRLSCAASGRIFRGYAMGWYRQAPGKERELVAAISRSGGSTYYADSVKGRFTISRDNAKNTVYLQMNSLKPEDTAVYYCAAVPYYVWYYYPIGGYWGQGTQVTVSS”, for which the “polyreactivity (PSR sort gate)” value is reported as “high polyreactivity”.

Turning to “QVQLVESGGGLVQAGGSLRLSCAASGFIFRYYAMGWYRQAPGKERELVASISYSGGTTYYADSVKGRFTISRDNAKNTVYLQMNSLKPEDTAVYYCNVYSRTHYQTYTDDYWGQGTQVTVSS”, the “polyreactivity (PSR sort gate)” value was “high polyreactivity”.

Turning to “QVQLVESGGGLVQAGGSLRLSCAASGFIFSYYAMGWYRQAPGKERELVAAINWSGGSTYYADSVKGRFTISRDNAKNTVFLQMNSLKPEDTAVYYCAAYSSWHPYDYWGQGTQVTVSS”, the “polyreactivity (PSR sort gate)” value is listed as “high polyreactivity”.

Consider “QVQLVESGGGLVQAGGSLRLSCAASGFTLGSNVMGWYRQAPGKERELVAGISQSGGRTFYADSVKGRFTISRDNAKNTVYLQMNSLKPEDTAVYYCAARRYAVEGSKNYYWGQGTQVTVSS”, for which the “polyreactivity (PSR sort gate)” value is “low polyreactivity”.

Turning to “QVQIVESGGGLVQAGGSLRLSCADSGGTFRRYAMGWYRQAPGKEREFVARIYDGGTTYYADSVKGRFTISRDNAKNTVYLQMNSLKPEDTAVYYCAAYPYSRYYYYSNYYWGQGTQVTVSS”, the “polyreactivity (PSR sort gate)” value is listed as “high polyreactivity”.

Regarding “QVQLVESGGGLVQAGGSLRLSCAASGSIFFRYAMGWYRQAPGKERELVARISWGGGRTYYADSVKGRFTISRDNAKNTVYLQMNSLKPEDTAVYYCNRAYWVNPGGFDYWGQGTQVTVSS”, the “polyreactivity (PSR sort gate)” value was “high polyreactivity”.

Take “QVQLVESGGGLVQAGGSLRLSCAASGSIFGYNAMGWYRQAPGIERELVAAISSGGNTYYADSVKGRFTISRDNAKNTVYLQMNSLKPEDTAVYYCAVDYYYGFDWGQGTQVTVSS”: the “polyreactivity (PSR sort gate)” value is “low polyreactivity”.

Turning to “QVQLVESGGGLVQAGGSLRLSCAASGRIFYRYAMGWYRQAPGKERELVATISRSGGSTNYADSVKGRFTISRDNAKNTVYLQMNSLKPEDTAVYYCNALYLSTRSGDYWGQGTQVTVSS”, the “polyreactivity (PSR sort gate)” value is on record as “high polyreactivity”.

As for “QVQLVESGGGLVQAGGSLRLSCAASGIIFGLNAMGWYRQAPGKERELVAAIRRRGGSTYYADSVKGRYTISRDNAKTTVYLQMNSLKPEDTAVYYCAAAGGRYSRAAYDYWGQGTQVTVSS”, the “polyreactivity (PSR sort gate)” value is listed as “low polyreactivity”.

“QVQLVESGGGLVQAGGSLRLSCAASGSSFAKYAMGWYRQAPGKERELVATISWSGTSTYYADSVKGRFTISRDNAKNTVYLQMNSLKPEDTAVYYCDADTECVGVNHIYDYWGQGNQVTVSS”: the “polyreactivity (PSR sort gate)” value is “low polyreactivity”.

Turning to “QVQLVESGGGLVQAGGSLRLSCAASGSIFGPYAMVWYRQAPGKERELVAAISSRGSSTYYADSVKGRFTISRDNAKNTVYLQMNSLKPEDTAVYYCAALYYVYGYDYWGQGTQVTVSS”, the “polyreactivity (PSR sort gate)” value is “high polyreactivity”.

For “QVQLVESGGGLVQAGGSLRLSCAASGRIFFLYAMGWYRQAPGKERELVASITRRGGSTYYADSVKGRVTISRDNAKNTVYLQMTSLKPEDTAVYYCAAELYRSNVYHYDYWGQGTQVTVSS”, the “polyreactivity (PSR sort gate)” value is listed as “high polyreactivity”.

“QVQLVESGGGLVQAGGSLRLSCAASGIIFGYYAMGWYRQAPGKERELVAAITWSGGSTYYADSVKGRFTISRDNAKNTVYLQMNSLKPEDSAVYYCNADDDGRVSSTIVEYWGQGTQVTVSS”: the “polyreactivity (PSR sort gate)” value is recorded as “low polyreactivity”.

Consider “HVQLVESGGGLVQAGGSLRLSCAASGRIFWRYAMGWYRQAPGKEREFVADITYSGGSTYYADSVKGRFTISRDNAKNTVYLQMNSLKPEDTAVYYCAAGWVRPWATYKLDYWGQGTQVTVSS”, for which the “polyreactivity (PSR sort gate)” value is recorded as “high polyreactivity”.

As for “QVQLVESGGGLVQAGGSLRLSCAASGFTFRDYAMGWYRQAPGKERELVAAISFSGGRTFYADSVKGRFTISRDNAKNTVYLQMNSLKPEDTAVYYCNAQYLTYRYYPRRNLDYWGQGTQVTVSS”, the “polyreactivity (PSR sort gate)” value is on record as “high polyreactivity”.

For “QVQLVESGGGLVQAGGSLRLSCAASGNIIVFYAMGWYRQAPGKEREFVAAITSGGSTNYADSVKGRFTISRDNAKNTVYLQMNSLKPEDTAVYYCAGRQWFSHRRWGGSRYDYWGQGTQVTVSS”, the “polyreactivity (PSR sort gate)” value is “high polyreactivity”.

As to “QVQLVESGGGLVQAGGSLRLSCAASGSTSAWYAMGWYRQAPGKERQLVATISSRGGSTYYADSVKGRFTISRDNAKNTVYLQMNSLKPEDTAVYYCAARIGATYWVDWTHRAYDYWGQGTQVTVSS”, the “polyreactivity (PSR sort gate)” value is “high polyreactivity”.

For the sequence “QVQLVESGGGLVQAGGSLRLSCAATGGTIYYYAMGWYRQAPGKERELVAAISTSGTSTYYADSVKGRFTISRDNAKNTVYLQMNSLKPEDTAVYYCAARGLRVSSRGYYWGQGTQVTVSS”, the “polyreactivity (PSR sort gate)” value was “high polyreactivity”.

Turning to “QVQLVESGGGLVQAGGSLRLSCAASGLTLDKYAMGWYRQAPGKERELVAGINSRGGSTYADSVKGRFTISRDNAKNTVYLQMNSMKPEDTAVYYCAADGKVQGGYYWGQGTQVTVSS”, the “polyreactivity (PSR sort gate)” value is listed as “high polyreactivity”.

With “QVQLVESGGGLVQAGGSLRLSCAASGITFISYAMGWYRQAPGKERELVAVISKSGGRTYYADSVKGRFTISRDNAKNTVYLQMNSLKPEDTAVYYCAATKRYASGMYYWGQGTQVTVSS”, the “polyreactivity (PSR sort gate)” value is “high polyreactivity”.

Turning to “QFQLEESGGGLVQAGGSLRLSCAASGFTFFTYAMGWYRQAPGKERELVAAITTGGSTNYADSVKGRFTISRDNAKNTVYLQMNSLKPEDTAVYYCAVYGYVYGSAVQYDYWGQGTQVTVSS”, the “polyreactivity (PSR sort gate)” value is “low polyreactivity”.
